The text below walks through data of patent US20210113652A1, “MASPIN-BASED INHIBITION OF OSTEOCLAST ACTIVITY AND PROMOTION OF BONE FORMATION” (Northwestern University, priority 2016, published 2021).

Series [1] relates to mouse tibiae inoculated with mammary tumor cells TM40D or maspin-expressing TM40D-Mp. In words: Osteolytic bone degradation in tumor-inoculated BALB/c mice (X-ray, H&E, TRAP staining of tibiae). Type of series: in vivo. An excerpt: FIG. 1. […] Panel A-B: Representative X-ray radiographs of mouse tibiae inoculated with mammary tumor cells TM40D (Panel A) or maspin-expressing TM40D-Mp tumor cells (Panel B), at the end point of 4 weeks following tumor inoculation. Note that mice inoculated with TM40D tumors display severe osteolytic lesion comparing to that with TM40D-Mp cells. Panel E: Summary of osteolytic lesion data (radiography analysis) in 20 mice (10 mice/group) at 2-week and 4-week time points. Panel C: Histological analysis of bone section of tumor-inoculated tibiae by H&E staining. Arrow heads indicate osteoclastic cells. Panel D: TRAP (tartrate-resistant acid phosphatase) staining of osteoclastic cells in bone sections. Arrows indicate osteoclastic cells. Panel F: Summary of TRAP staining data of osteoclasts in mouse tibiae inoculated with TM40D or TM40D-Mp cells.

Series [2] concerns primary bone marrow cells. In words: Osteoclastogenesis in mouse primary bone marrow co-culture assay (TRAP staining). Type of series: cell-based. The settings on record: bone marrow cells co-cultured with TM40D-Mp vs TM40D cells; TRAP-positive cells with 2 or more nuclei. An excerpt:
FIG. 2. […] Osteoclastogenesis analyses of primary bone marrow cells co-cultured with breast cancer cells with or without maspin expression. (Panel A) Newly isolated primary bone marrow cells only (control). (Panel B) Bone marrow cells co-cultured with mammary tumor TM40D cells. (Panel C) Bone marrow cells co-cultured with maspin-expressing TM40D-Mp cells. (Panel D) Bone marrow cells co-cultured with TM40D-Mp cells and rabbit anti-maspin antibody. (Panel E) Bone marrow cells co-cultured with TM40D-Mp cells and rabbit IgG. (F) Summary of percentage of osteoclasts in co-cultured cells analyzed by TRAP staining. TRAP-positive cells containing 2 or more nuclei are defined as osteoclasts.

Another series concerns RAW246.7 cells. As to the kind of experiment: Differentiation assay of pre-osteoclastic RAW246.7 cells under RANKL (TRAP staining). Type of series: cell-based. The settings on record: maspin 0.1-10 ug/ml; RANKL 50-100 ng/ml; 8 days. As to the method:
FIG. 3. […] RAW246.7 cells were treated with RANKL (50 -100 ng/ml) and different doses of maspin for 8 days, and cell cultures were used for TRAP staining.

The test system of series [3] is mature osteoclasts from RAW246.7. In words: Osteoclast actin ring formation (phalloidin staining). The conditions noted are these: RANKL 50 ng/ml pre-culture 8 days; 2 hours at 37° C. It counts as cell-based. Here is the method:
FIG. 6. Panels A-C: Maspin inhibits osteoclast actin ring formation. Osteoclasts display osteolytic activity by forming actin rings. RAW246.7 were pre-cultured with RANKL (50 ng/ml) for 8 days to form mature osteoclasts. Cells were first washed with cold PBS twice to disrupt actin rings, warm medium with RANKL were added to cell culture with or without Gst or GST-maspin and cells were then cultured for 2 hours at 37° C. Cells were then washed and stained with phalloidin for actin ring formation. Cells with strong and clear actin ring belts were counted as positive. Five fields of cell staining were counted for each sample and experiments repeated three times. The percentage of cells forming strong and clear actin rings was calculated.

In a further series the test system is calvariae. In words: New bone formation in ex vivo calvariae organ culture model. On the set-up: species or system BABL/c new-born mice. The conditions noted are these: 7 days organ culture. From the text:
FIG. 7. […] Panel A, calvariae were removed from 4 days-old BABL/c new-born mice and cultured in an ex vivo organ culture medium. They were either treated with or without concentrated conditional medium from mouse mammary tumor TM40D cells or maspin-expressing TM40D-Mp cells or with recombinant maspin (GST-Mp) with or without an anti-maspin antibody for 7 days. H&E staining of representative images were shown. Arrows indicate osteoblast cells. Arrowhead indicates new bone area. Panel B, quantitation of the average number of osteoblasts under different treatments listed in Panel A.

Series [4] is described as follows: Long-term treatment with maspin in animals. It counts as in vivo. From the text: Because bone is tissue under constant balancing actions between bone-degrading osteoclasts and bone-forming osteoblasts, inhibiting the formation and activity of osteoclasts will favor or promote osteoblastic activity, thereby promoting new bone formation and bone wound healing. Further, maspin is naturally produced by osteoblasts in the bone microenvironment. This represents a previously unappreciated and unexploited mechanism for osteoblast-produced maspin counteracting the effect of osteclastic activity. […] Therefore, maspin may be delivered to human patients as a non-toxic therapeutic product against various bone diseases.

The conditions of series [5]: overexpression of maspin in vivo; cited from earlier work.

B1: Maspin: Maspin (mammary serine protease inhibitor), a serpin protein encoded by the SERPINB5 gene; human wild-type is SEQ ID NO: 1 (protein, listed as Homo sapiens)
chain: MDALQLANSAFAVDLFKQLCEKEPLGNVLFSPICLSTSLSLAQVGAKGDTANEIGQVLHFENVKDIPFGFQTVTSDVNKLSSFYSLKLIKRLYVDKSLNLSTEFISSTKRPYAKELETVDFKDKLEETKGQINNSIKDLTDGHFENILADNSVNDQTKILVVNAAYFVGKWMKKFPESETKECPFRLNKTDTKPVQMMNMEATFCMGNIDSINCKIIELPFQNKHLSMFILLPKDVEDESTGLEKIEKQLNSESLSQWTNPSTMANAKVKLSIPKFKVEKMIDPKACLENLGLKHIFSEDTSDFSGMSETKGVALSNVIHKVCLEITEDGGDSIEVPGARILQHKDELNADHPFIYIIRHNKTRNIIFFGKFCSP
B1: the “osteoclast numbers (TRAP staining) in mouse tibiae” value in series [1] (TM40D-Mp vs TM40D tumor cells) is given as “significantly decreased osteoclast numbers”. In series [1] (tibiae inoculated with TM40D-Mp vs TM40D tumor cells, 2-week and 4-week time points), the “osteolytic bone degradation (radiography)” value is given as “inhibits osteolytic bone degradation”. In addition, the osteoclast formation result in series [2] is “inhibits osteoclast formation”. In the series on RAW246.7 cells, the “osteoclast formation under RANKL stimulation” value is on record as “completely inhibits osteoclast formation”. Further, the “percentage of cells forming strong and clear actin rings” value in series [3] was determined as 53%. Also, the new bone formation entry in the series with calvariae is on record as “promotes new bone formation”. In addition, the side effects entry in series [4] is “no side effects”. Besides, the toxic side effects result in series [5] is listed as “does not have any observable toxic side effects”.
